Laboratory results taken from article PMC6602975.

Key:
[1] = biological target: H4K16ac nucleosome (X. laevis | not stated); assay: native gel or EMSA; increasing amounts of Orc1 or Sir3 proteins with 50 or 25 nM nucleosomes; 10 mM Tris pH 7.5, 50 mM NaCl, 2.5% glycerol, 1 mM DTT; room temperature, 30 min; native PAGE 6% (Sir3) or 8% (Orc1), 0.2X TBE; decrease of free nucleosome; apparent KD from a Hill fit
[2] = biological target: Unmodified nucleosome core particle (X. laevis histone octamer on 147 bp Widom-601 DNA) (X. laevis); assay: as above

Wild-type Orc1 (1–214) BAH domain, sequence (P54784 1-214): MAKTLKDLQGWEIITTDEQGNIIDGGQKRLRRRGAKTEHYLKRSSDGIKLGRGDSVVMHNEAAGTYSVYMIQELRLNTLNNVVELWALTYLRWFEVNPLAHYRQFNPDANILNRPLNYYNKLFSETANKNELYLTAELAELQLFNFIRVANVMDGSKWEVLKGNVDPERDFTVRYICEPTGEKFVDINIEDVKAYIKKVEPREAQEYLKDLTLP

Kd [1]: 1500 nM
Kd [2]: 1300 nM
Substance: Wild-type Orc1 (1–214) BAH domain (from UniProt P54784 1-214) (domain or fragment)
